According to patent publication US20140212423A1 (AbbVie / Abbott, published 2014):

What was measured:
[1] = target: T1, mouse Transferrin Receptor overexpressed on Hek 293 cells (mouse, UniProt Q62351 1-763); assay: 293/mTFR cell-based assay
T1 construct: whole, on cells; also called Hek293/mTfR; 293/mTFR
Experimental: (§1) Meso-scale Discovery (MSD) Electrochemiluminescesnce (ECL) assays to screen for antibodies or DVDs that bind a desired target antigen expressed on the cell surface were performed as follows: Hek 293 cells overexpressing mouse Transferin Receptor were added onto MSD 96-well plates (MSD Cat# L11 XB-3, lot#2290-EA) which were blocked using blocking buffer (30% FBS Serum (Hyclone) in PBS) at 37° C. for 1 hr. After incubating at RT for 30 min with mild agitation, plates were washed with DPBS 3 times and Abs/DVDs (10,000 ng/ml) were added. After incubating for 1 hr at RT, plates were washed 3 times with DPBS and 25 ul of Goat anti human Sulfo TAG (MSD Cat# R32AC-, Lot# W001162) at 1 μg/ml is added. Following a 1 h incubation at RT for 1 hr, plates are washed and MSD read buffer is added before reading on MSD SECTOR Imager 6000. EC50 values are obtained using Xlfit4 software package

[2] = target: Repulsive guidance molecule A; assay: cell-based or functional assay
rmTfR (123-763) = target: T2, rmTfR (123-763) (mouse, UniProt Q62351 123-763); assay: Biacore SPR, DVD-Ig captured via anti-human Fc, rmTfR (123-763) in solution
T2 construct: range 123-763; also called recombinant mouse transferrin receptor 123-763
T2 sequence (Q62351 123-763): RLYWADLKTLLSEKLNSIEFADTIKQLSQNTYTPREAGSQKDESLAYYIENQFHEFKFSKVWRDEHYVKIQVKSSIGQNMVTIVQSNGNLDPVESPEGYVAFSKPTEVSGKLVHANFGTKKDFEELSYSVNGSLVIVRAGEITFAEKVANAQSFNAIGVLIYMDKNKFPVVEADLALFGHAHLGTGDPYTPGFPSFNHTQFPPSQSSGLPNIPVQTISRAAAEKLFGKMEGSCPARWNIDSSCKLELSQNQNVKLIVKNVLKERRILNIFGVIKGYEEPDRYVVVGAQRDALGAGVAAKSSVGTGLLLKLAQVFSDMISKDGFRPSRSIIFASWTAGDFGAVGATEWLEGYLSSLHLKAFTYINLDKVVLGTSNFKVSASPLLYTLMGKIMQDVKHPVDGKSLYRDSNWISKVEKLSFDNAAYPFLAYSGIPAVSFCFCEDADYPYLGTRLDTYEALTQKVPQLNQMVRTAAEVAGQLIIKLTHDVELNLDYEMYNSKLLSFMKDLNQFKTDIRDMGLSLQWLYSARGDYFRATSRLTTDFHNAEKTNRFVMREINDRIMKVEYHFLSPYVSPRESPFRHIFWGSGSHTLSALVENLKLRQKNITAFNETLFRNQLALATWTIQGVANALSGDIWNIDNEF
Experimental: The BIACORE assay (Biacore, Inc, Piscataway, N.J.) was used to determine the affinity of antibodies or DVD-Ig™ with kinetic measurements of on-rate and off-rate constants. Binding of antibodies or DVD-Ig™ to a target antigen (for example, a purified recombinant target antigen) was determined by surface plasmon resonance-based measurements with a Biacore® 1000 or 3000 instrument (Biacore® AB, Uppsala, Sweden) using running HBS-EP (10 mM HEPES [pH 7.4], 150 mM NaCl, 3 mM EDTA, and 0.005% surfactant P20) at 25° C. All chemicals were obtained from Biacore® AB (Uppsala, Sweden) or otherwise from a different source as described in the text. For example, approximately 5000 RU of goat anti-human IgG, (Fcγ), fragment specific polyclonal antibody (Pierce Biotechnology Inc, Rockford, Ill.) diluted in 10 mM sodium acetate (pH 4.5) was directly immobilized across a CM5 research grade biosensor chip using a standard amine coupling kit according to manufacturer's instructions and procedures at 25 μg/ml. Unreacted moieties on the biosensor surface are blocked with ethanolamine. Modified carboxymethyl dextran surface in flowcell 2 and 4 is used as a reaction surface. Unmodified carboxymethyl dextran without goat anti-human IgG in flow cell 1 and 3 is used as the reference surface. For kinetic analysis, rate equations derived from the 1:1 Langmuir binding model were fitted simultaneously to association and dissociation phases of all eight injections (using global fit analysis) with the use of Biaevaluation 4.0.1 software. Purified antibodies or DVD-Ig™ were diluted in HEPES-buffered saline for capture across goat anti-human IgG specific reaction surfaces. Antibodies or DVD-Ig™ to be captured as a ligand (25 μg/ml) were injected over reaction matrices at a flow rate of 5 μl/min. The association and dissociation rate constants, kon (M⁻¹s⁻¹) and koff (s⁻¹) are determined under a continuous flow rate of 25 μl/min. Rate constants are derived by making kinetic binding measurements at different antigen concentrations ranging from 10-200 nM. The equilibrium dissociation constant (M) of the reaction between antibodies or DVD-Ig™s and the target antigen is then calculated from the kinetic rate constants by the following formula: KD=koff/kon. Binding is recorded as a function of time and kinetic rate constants are calculated.

[3] = target: T1, mouse Transferrin Receptor …; assay: cell-based MSD-ECL binding on Hek293 cells overexpressing mouse TfR
Experimental: as §1

T1 sequence (Q62351 whole entry): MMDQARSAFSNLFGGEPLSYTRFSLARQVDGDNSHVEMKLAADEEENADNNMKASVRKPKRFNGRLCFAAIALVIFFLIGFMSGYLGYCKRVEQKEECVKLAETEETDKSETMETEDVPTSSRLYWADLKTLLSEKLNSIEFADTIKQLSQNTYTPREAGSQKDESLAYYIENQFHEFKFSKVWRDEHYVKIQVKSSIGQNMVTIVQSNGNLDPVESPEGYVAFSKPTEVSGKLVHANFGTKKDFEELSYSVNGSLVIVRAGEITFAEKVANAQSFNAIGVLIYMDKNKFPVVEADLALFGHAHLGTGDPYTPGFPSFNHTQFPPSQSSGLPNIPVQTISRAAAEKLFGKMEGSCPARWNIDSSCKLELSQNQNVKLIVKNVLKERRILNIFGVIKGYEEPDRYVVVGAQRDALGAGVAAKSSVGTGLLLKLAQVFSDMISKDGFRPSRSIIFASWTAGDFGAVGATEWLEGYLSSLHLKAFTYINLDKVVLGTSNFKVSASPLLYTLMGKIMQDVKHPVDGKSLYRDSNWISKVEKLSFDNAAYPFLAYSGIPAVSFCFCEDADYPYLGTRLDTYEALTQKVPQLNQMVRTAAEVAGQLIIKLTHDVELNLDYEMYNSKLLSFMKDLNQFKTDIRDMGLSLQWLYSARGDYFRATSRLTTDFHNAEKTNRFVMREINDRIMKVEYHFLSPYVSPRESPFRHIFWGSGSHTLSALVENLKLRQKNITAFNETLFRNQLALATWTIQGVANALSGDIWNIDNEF

B1: RGMA(AE12-1)-GS-TfR(AB402) (bispecific antibody)
VH: EVQLVQSGAEVKKPGASVKVSCKASGYTFTSHGISWVRQAPGQGLDWMGWISPYSGNTNYAQKLQGRVTMTTDTSTSTAYMELSSLRSEDTAVYYCARVGSGPYYYMDVWGQGTLVTVSSGGGGSGGGGSEVQLVESGGGLVQPGGSLRLSCAASGFTFSNYGMHWIRQAPGKGLEWIAMIYYDSSKMNYADTVKGRFTISRDNAKNSLYLQMNSLRAEDTAVYYCAVPTSHYVVDVWGQGTTVTVSS
VL: QSALTQPRSVSGSPGQSVTISCTGTSSSVGDSIYVSWYQQHPGKAPKLMLYDVTKRPSGVPDRFSGSKSGNTASLTISGLQAEDEADYYCCSYAGTDTLFGGGTKVTVLGGGSGGGGSGAIQMTQSPSSLSASVGDRVTITCQASQDIGNWLAWYQQKPGKSPKLLIYGATSLADGVPSRFSGSRSGTDFTLTISSLQPEDFATYYCLQAYNTPWTFGGGTKVEIKR
notes: DVD-Ig composed from its name; constant regions not assigned
Question: B1 was tested. Which EC50 [1] did it give?
Answer: 5.36 nM

Question: What about the “BMP Assay (EC50, nM)” value [2] of the same binder?
Answer: 0.014 nM

B2: RGMA(AE12-1)-GS-TfR(AB403) (bispecific antibody)
VH: EVQLVQSGAEVKKPGASVKVSCKASGYTFTSHGISWVRQAPGQGLDWMGWISPYSGNTNYAQKLQGRVTMTTDTSTSTAYMELSSLRSEDTAVYYCARVGSGPYYYMDVWGQGTLVTVSSGGGGSGGGGSEVQLVESGGGLVQPGGSLRLSCAASGFTFSNYGMHWIRQAPGKGLEWIAMIYYDSSKMNYADTVKGRFTISRDNAKNSLYLQMNSLRAEDTAVYYCAVPTSHYVVDVWGQGTTVTVSS
VL: QSALTQPRSVSGSPGQSVTISCTGTSSSVGDSIYVSWYQQHPGKAPKLMLYDVTKRPSGVPDRFSGSKSGNTASLTISGLQAEDEADYYCCSYAGTDTLFGGGTKVTVLGGGSGGGGSGEIVMTQSPATLSVSPGERATLSCQASQDIGNWLAWYQQKPGQSPRLLIYGATSLADGVPARFSGSRSGTEFTLTISSLQSEDFAVYYCLQAYNTPWTFGGGTKVEIKR
notes: DVD-Ig composed from its name; constant regions not assigned; also called RGMA (AE12-1)-GS-AB403 DVD-Ig
Question: For B2, which EC50 [1] is on record?
Answer: 4.3 nM

Question: And the “BMP Assay (EC50, nM)” value [2]?
Answer: < 0.025 nM

B3: DVD2358 (bispecific antibody)
VH: EVQLVESGGGLVQPGGSLRLSCAASGFTFSNYGMHWIRQAPGKGLEWIAMIYYDSSKMNYADTVKGRFTISRDNAKNSLYLQMNSLRAEDTAVYYCAVPTSHYVVDVWGQGTTVTVSSASTKGPEVQLLESGGGLVQPGGSLRLSCAASGFTFSNYGMSWVRQAPGKGLEWVASIRSGGGRTYYSDNVKGRFTISRDNSKNTLYLQMNSLRAEDTAVYYCVRYDHYSGSSDYWGQGTLVTVSS
VL: AIQMTQSPSSLSASVGDRVTITCQASQDIGNWLAWYQQKPGKSPKLLIYGATSLADGVPSRFSGSRSGTDFTLTISSLQPEDFATYYCLQAYNTPWTFGGGTKVEIKRTVAAPDVVMTQSPLSLPVTPGEPASISCKSSQSLLDSDGKTYLNWLLQKPGQSPQRLIYLVSKLDSGVPDRFSGSGSGTDFTLKISRVEAEDVGVYYCWQGTHFPRTFGQGTKVEIKR
notes: DVD-Ig, outer AB402 (TfR), inner AB043 (APP), HG-short/LK-short; dual variable regions only; constant regions not assigned
Question: Which results are given for B3?
Answer: Kd (rmTfR (123-763)): 1.3 nM; koff (rmTfR (123-763)): 4.06e-05 s⁻¹; kon (rmTfR (123-763)): 31300 M⁻¹ s⁻¹; EC50 [3]: 0.1 nM

B4: DVD2360 (bispecific antibody)
VH: EVQLVESGGGLVQPGGSLRLSCAASGFTFSNYGMHWIRQAPGKGLEWIAMIYYDSSKMNYADTVKGRFTISRDNAKNSLYLQMNSLRAEDTAVYYCAVPTSHYVVDVWGQGTTVTVSSASTKGPEVQLLESGGGLVQPGGSLRLSCAASGFTFSNYGMSWVRQAPGKGLEWVASIRSGGGRTYYSDNVKGRFTISRDNSKNTLYLQMNSLRAEDTAVYYCVRYDHYSGSSDYWGQGTLVTVSS
VL: EIVMTQSPATLSVSPGERATLSCQASQDIGNWLAWYQQKPGQSPRLLIYGATSLADGVPARFSGSRSGTEFTLTISSLQSEDFAVYYCLQAYNTPWTFGGGTKVEIKRTVAAPDVVMTQSPLSLPVTPGEPASISCKSSQSLLDSDGKTYLNWLLQKPGQSPQRLIYLVSKLDSGVPDRFSGSGSGTDFTLKISRVEAEDVGVYYCWQGTHFPRTFGQGTKVEIKR
notes: DVD-Ig, outer AB403 (TfR), inner AB043 (APP), HG-short/LK-short; dual variable regions only; constant regions not assigned
Question: B4 was tested. Which Kd (rmTfR (123-763)) did it give?
Answer: 1.7 nM

Question: And the koff (rmTfR (123-763))?
Answer: 4.8e-05 s⁻¹

Question: And the kon (rmTfR (123-763))?
Answer: 28000 M⁻¹ s⁻¹

Question: What about the EC50 [3] of the same binder?
Answer: 0.15 nM

B5: RGMA(AE12-1)-SS-TfR(AB402) (bispecific antibody)
VH: EVQLVQSGAEVKKPGASVKVSCKASGYTFTSHGISWVRQAPGQGLDWMGWISPYSGNTNYAQKLQGRVTMTTDTSTSTAYMELSSLRSEDTAVYYCARVGSGPYYYMDVWGQGTLVTVSSASTKGPEVQLVESGGGLVQPGGSLRLSCAASGFTFSNYGMHWIRQAPGKGLEWIAMIYYDSSKMNYADTVKGRFTISRDNAKNSLYLQMNSLRAEDTAVYYCAVPTSHYVVDVWGQGTTVTVSS
VL: QSALTQPRSVSGSPGQSVTISCTGTSSSVGDSIYVSWYQQHPGKAPKLMLYDVTKRPSGVPDRFSGSKSGNTASLTISGLQAEDEADYYCCSYAGTDTLFGGGTKVTVLGQPKAAPAIQMTQSPSSLSASVGDRVTITCQASQDIGNWLAWYQQKPGKSPKLLIYGATSLADGVPSRFSGSRSGTDFTLTISSLQPEDFATYYCLQAYNTPWTFGGGTKVEIKR
notes: DVD-Ig composed from its name; constant regions not assigned; not shown: short light-chain linker (code S) after a lambda VL
Question: For B5, which EC50 [1] is on record?
Answer: 30.9 nM

Question: What about the “BMP Assay (EC50, nM)” value [2] of the same binder?
Answer: 0.436 nM

B6: RGMA(AE12-1)-SS-TfR(AB403) (bispecific antibody)
VH: EVQLVQSGAEVKKPGASVKVSCKASGYTFTSHGISWVRQAPGQGLDWMGWISPYSGNTNYAQKLQGRVTMTTDTSTSTAYMELSSLRSEDTAVYYCARVGSGPYYYMDVWGQGTLVTVSSASTKGPEVQLVESGGGLVQPGGSLRLSCAASGFTFSNYGMHWIRQAPGKGLEWIAMIYYDSSKMNYADTVKGRFTISRDNAKNSLYLQMNSLRAEDTAVYYCAVPTSHYVVDVWGQGTTVTVSS
VL: QSALTQPRSVSGSPGQSVTISCTGTSSSVGDSIYVSWYQQHPGKAPKLMLYDVTKRPSGVPDRFSGSKSGNTASLTISGLQAEDEADYYCCSYAGTDTLFGGGTKVTVLGQPKAAPEIVMTQSPATLSVSPGERATLSCQASQDIGNWLAWYQQKPGQSPRLLIYGATSLADGVPARFSGSRSGTEFTLTISSLQSEDFAVYYCLQAYNTPWTFGGGTKVEIKR
notes: as for B5
Question: B6 was tested. Which EC50 [1] did it give?
Answer: 71 nM

Question: And the “BMP Assay (EC50, nM)” value [2]?
Answer: 1.18 nM

B7: DVD2365 (bispecific antibody)
VH: QVQLVQSGAEVKKPGASVKVSCKASGFTFSNYGMHWIRQAPGQGLEWIAMIYYDSSKMNYADTVKGRFTITRDNSTNTLYMELSSLRSEDTAVYYCAVPTSHYVVDVWGQGTTVTVSSASTKGPEVQLLESGGGLVQPGGSLRLSCAASGFTFSNYGMSWVRQAPGKGLEWVASIRSGGGRTYYSDNVKGRFTISRDNSKNTLYLQMNSLRAEDTAVYYCVRYDHYSGSSDYWGQGTLVTVSS
VL: EIVMTQSPATLSVSPGERATLSCQASQDIGNWLAWYQQKPGQSPRLLIYGATSLADGVPARFSGSRSGTEFTLTISSLQSEDFAVYYCLQAYNTPWTFGGGTKVEIKRTVAAPDVVMTQSPLSLPVTPGEPASISCKSSQSLLDSDGKTYLNWLLQKPGQSPQRLIYLVSKLDSGVPDRFSGSGSGTDFTLKISRVEAEDVGVYYCWQGTHFPRTFGQGTKVEIKR
notes: DVD-Ig, outer AB405 (TfR), inner AB043 (APP), HG-short/LK-short; dual variable regions only; constant regions not assigned
Question: How did the Kd (rmTfR (123-763)) turn out when B7 was run?
Answer: 78 nM

Question: And the koff (rmTfR (123-763))?
Answer: 0.000771 s⁻¹

Question: And the kon (rmTfR (123-763))?
Answer: 9870 M⁻¹ s⁻¹

Question: What about the EC50 [3] of the same binder?
Answer: 3.2 nM

B8: TfR(AB404)-LL-RGMA(AE12-1) (bispecific antibody)
chain 1: QVQLVQSGAEVKKPGASVKVSCKASGFTFSNYGMHWIRQAPGQGLEWIAMIYYDSSKMNYADTVKGRFTITRDNSTNTLYMELSSLRSEDTAVYYCAVPTSHYVVDVWGQGTTVTVSSASTKGPSVFPLAPEVQLVQSGAEVKKPGASVKVSCKASGYTFTSHGISWVRQAPGQGLDWMGWISPYSGNTNYAQKLQGRVTMTTDTSTSTAYMELSSLRSEDTAVYYCARVGSGPYYYMDVWGQGTLVTVSS
chain 2: AIQMTQSPSSLSASVGDRVTITCQASQDIGNWLAWYQQKPGKSPKLLIYGATSLADGVPSRFSGSRSGTDFTLTISSLQPEDFATYYCLQAYNTPWTFGGGTKVEIKRTVAAPSVFIFPPQSALTQPRSVSGSPGQSVTISCTGTSSSVGDSIYVSWYQQHPGKAPKLMLYDVTKRPSGVPDRFSGSKSGNTASLTISGLQAEDEADYYCCSYAGTDTLFGGGTKVTVLG
Question: Which EC50 [1] does the source give for B8 here?
Answer: 3.61 nM

Question: And the “BMP Assay (EC50, nM)” value [2]?
Answer: 13.2 nM
